Here are results for four molecules from patent US20220290147A1, “SYSTEM FOR REGULATING GENE EXPRESSION” (Baylor College of Medicine, priority 2019, published 2022).

Substitutions are numbered along the chain they refer to.

One data set concerns alternative splicing. Description: RT-PCR of tetracycline-induced alternative splicing. It is filed as cell-based. Conditions: presence of Tc, compared to Y196CAA-2MAZ. The protocol: Cells transfected with the respective constructs were grown 18 hours at 37° C. in medium in the absence or presence of tetracycline. Total RNA was isolated according to the protocol supplied with RiboPure™ RNA Purification Kit (Ambion, Austin, Tex.). For RT-PCR, RT was performed using SuperScript III (invitrogen, Carlsbad, Calif.) according to manufacturer's protocol and PCR was performed using the primers targeting the beginning of the transcript and reporter gene.

The subject of another data set is 293T cells. Description: Luciferase assay: tetracycline-induced transgene expression (induction in fold) from polyA aptamer constructs. The class given is cell-based, human.

Protocol for 293T cells: Cells were seeded in 96-well plates at a density of 25000-30000 cells/well. After 24 hours of incubation, each well was transfected with 50 ng of DNA vectors and were incubated with culture medium containing none or various concentration of tetracycline for an additional 18 hours. Luciferase activity was measured in relative light units (RLU) with a Polarstar Omega plate reader (BMG Labtech, USA). To make 36 mL of assay buffer, 144 μL 1M DTT, 108 μL M ATP, 252 μL 0.1M luciferin and 360 μl 0.05M CoA were added to 35 mL of basic buffer (25 mM Tricine, 0.5 mM EDTA-Na2, 0.54 mM Na-triphosphate, 16.3 mM MgSO4.7H2O, and 0.8% Triton X-100). After the cell medium was removed, 40 μL of assay buffer was added to each well, and luciferase activity was read twice with the Polarstar Omega plate reader. Induction in fold is calculated as the ratio of transgene expression in the presence vs absence of tetracycline.

B1: Y196CAA-4MAZ: SEQ ID NO: 6; Y-shape polyA switch construct with 4MAZ (nucleic acid)
DNA: TCAGATCGCCTGGAGACGCCATCCACGCTGTTTTGACCTCCATAGAAGACACCGGGACCGATCCAGCCTCCCCTCGAAGCTGATCCTGAGAACTTCAGGGTGAGTCTATGGGACCCTTGATGTTTTCTTTCCCCTTCTTTTCTATGGTTAAGTTCATGTCATAGGAAGGGGAGAAGTAACAGGGTACACATATTGACCAAATCAGGGTAATTTTGCATTTGTAATTTTAAAAAATGCTTTCTTCTTTTAATATACTTTTTTGTTTATCTTATTTCTAATACTTTCCCTAATCTCTTTCTTTCAGGGCAATAATGATACAATGTATCATGCCTCTTTGCACCATTCTAAAGAATAACAGTGATAATTTCTGGGTTAAGGCAATAGCAATATTTCTGCATATAAATATTTCTGCATATAAATTGTAACTGATGTAAGAGGTTTCATATTGCTAATAGCAGCTACAATCCAGCTACCATTCTGCTTTTATTTTATGGTTGGGATAAGGCTGGATTATTCTGAGTCCAAGCTAGGCCCTTTTGCTAATCATGTTCATACCTCTTATCTTCCTCCCACAGCTCCTGGGCAACGTGCTGGTCTGTGTGCTGGCCCATCACTTTGGCAAAGAATTGGCTAGCCACACACACAAATCTGGGGAGGTGAAGAATACGACCACCTGCGTTTTATACTTCCACGAGATCTGGGGAGGTGAAGAATACGACCACCTAATAAGATTACCGAAAGGCAATCTTATTAAAACATACCAGATCTTGTGAGGGTGTTTGTGGCAAAACATACCAGATCGAATTCGATCTGGGGAGGTGAAGAATACGACCACCTGCTACAAGTACCTAATAAAGTATAAAGTGCAAAACATACCAGATCTGTGTGTTGGTTTTTTGTGTGTTAACGGGGGAGGGGGAGGAAAGGGGGAGGGGGAGGAAAGGGGGAGGGGGAGGAAAGGGGGAGGGGGAGCGGCCGCCAACAACAACAACAACAACAACAACAACAACAACAACAACATAACAGTGTTCACTAGCAACCTCAAACAGACACCATG
Regarding B1, the Tc-induced alternative splicing result in the data set with alternative splicing is “far more pronounced”.

B2: Y208: SEQ ID NO: 7; polyA switch construct (nucleic acid)
DNA: TGGAGACGCCATCCACGCTGTTTTGACCTCCATAGAAGACACCGGGACCGATCCAGCCTCCCCTCGAAGCTGATCCTGAGAACTTCAGGGTGAGTCTATGGGACCCTTGATGTTTTCTTTCCCCTTCTTTTCTATGGTTAAGTTCATGTCATAGGAAGGGGAGAAGTAACAGGGTACACATATTGACCAAATCAGGGTAATTTTGCATTTGTAATTTTAAAAAATGCTTTCTTCTTTTAATATACTTTTTTGTTTATCTTATTTCTAATACTTTCCCTAATCTCTTTCTTTCAGGGCAATAATGATACAATGTATCATGCCTCTTTGCACCATTCTAAAGAATAACAGTGATAATTTCTGGGTTAAGGCAATAGCAATATTTCTGCATATAAATATTTCTGCATATAAATTGTAACTGATGTAAGAGGTTTCATATTGCTAATAGCAGCTACAATCCAGCTACCATTCTGCTTTTATTTTATGGTTGGGATAAGGCTGGATTATTCTGAGTCCAAGCTAGGCCCTTTTGCTAATCATGTTCATACCTCTTATCTTCCTCCCACAGCTCCTGGGCAACGTGCTGGTCTGTGTGCTGGCCCATCACTTTGGCAAAGAATTGGCTAGCCACACACACAAATCTGGGGAGGTGAAGAATACGACCACCTGCGTTTTATACTTCCGCGAGATCTGGGGAGGTGAAGAATACGACCACCTAATAAGATTACCGAAAGGCAATCTTATTAAAACATACCAGATCTTGCGAGGGTGTTTGTGGCAAAACATACCAGATCGAATTCGATCTGGGGAGGTGAAGAATACGACCACCTGCTACAAGTACCTAATAAAGTATAAAGTGCAAAACATACCAGATCTGTGTGTTGGTTTTTTGTGTGTTAACGGGGGAGGGGGAGGAAAGGGGGAGGGGGAGGAAAGGGGGAGGGGGAGGAAAGGGGGAGGGGGAGCGGCCGCCAACAACAACAACAACAACAACAACAACAACAACAACAACATAACAGTGTTCACTAGCAACCTCAAACAGACACCATG
For the molecule B2, the “effect on induction of inserting CAA repeats in the 5′UTR of the named construct” value (“effect on induction” below) in the data set on 293T cells was “higher induction”.

B3: Y209: SEQ ID NO: 8; polyA switch construct (nucleic acid)
DNA: TCAGATCGCCTGGAGACGCCATCCACGCTGTTTTGACCTCCATAGAAGACACCGGGACCGATCCAGCCTCCCCTCGAAGCTGATCCTGAGAACTTCAGGGTGAGTCTATGGGACCCTTGATGTTTTCTTTCCCCTTCTTTTCTATGGTTAAGTTCATGTCATAGGAAGGGGAGAAGTAACAGGGTACACATATTGACCAAATCAGGGTAATTTTGCATTTGTAATTTTAAAAAATGCTTTCTTCTTTTAATATACTTTTTTGTTTATCTTATTTCTAATACTTTCCCTAATCTCTTTCTTTCAGGGCAATAATGATACAATGTATCATGCCTCTTTGCACCATTCTAAAGAATAACAGTGATAATTTCTGGGTTAAGGCAATAGCAATATTTCTGCATATAAATATTTCTGCATATAAATTGTAACTGATGTAAGAGGTTTCATATTGCTAATAGCAGCTACAATCCAGCTACCATTCTGCTTTTATTTTATGGTTGGGATAAGGCTGGATTATTCTGAGTCCAAGCTAGGCCCTTTTGCTAATCATGTTCATACCTCTTATCTTCCTCCCACAGCTCCTGGGCAACGTGCTGGTCTGTGTGCTGGCCCATCACTTTGGCAAAGAATTGGCTAGCCACACACACAAATCTGGGGAGGTGAAGAATACGACCACCTGCGTTTTATACTTCCGCGAGATCTGGGGAGGTGAAGAATACGACCACCTAATAAGATTACCGAAAGGCAATCTTATTAAAACATACCAGATCTTGCGAGGGTGTTTGTGGCAAAACATACCAGATCGAATTCGATCTGGGGAGGTGAAGAATACGACCACCTGCTACAAGTACCTAAATAAAGTATAAAGTGCAAAACATACCAGATCTGTGTGTTGGTTTTTTGTGTGTTAACGGGGGAGGGGGAGGAAAGGGGGAGGGGGAGGAAAGGGGGAGGGGGAGGAAAGGGGGAGGGGGAGCGGCCGCCAACAACAACAACAACAACAACAACAACAACAACAACAACATAACAGTGTTCACTAGCAACCTCAAACAGACACCATG
Consider B3, for which the “effect on induction” value in the data set with 293T cells is recorded as “higher induction”.

B4: Y211: SEQ ID NO: 9; polyA switch construct (nucleic acid)
DNA: B3 DNA with G691A, C771T
With B4, in the data set with 293T cells, the “effect on induction” value is listed as “higher induction”.
